Measurements published in patent US20150307600A1.

Target: synthetic biotinylated and pegylated phospho-tau peptide RSGYSSPG(pS)PG(pT)PGSRSR-OH (human)
Assay: MSD electrochemiluminescence competition on the biotinylated phospho-tau peptide (SEQ ID NO:39) coated on streptavidin plates; competitor: SULFO-TAG-labelled AT8

AT8 anti-tau antibody (ThermoScientific, Rockford, Ill.)
IC50 (read off the curve): 40 nM
